# Measurements taken from paper PMC5316894, “Cationic amino acid transporters play key roles in the survival and transmission of apicomplexan parasites” (Nature Communications, 2017).
# B1: PbNPT1 (PbNPT1-HA) (Plasmodium berghei ANKA) (protein)
# chain: MNESNCTKIVNFLKGMRLKTNPNLPGAKQKTPLNIHRFYLLLIIIIYTATSACIYFDWTSIRNLLLNVGKYEHLNISKYADITLSPQYKKINNLYPMTLAIHFTMSVFCGFLYDHIGPKFTAIIGQGFNILSWIFLSIDTTKIDTTLIGFIFLGLGADTAFIPILTVSNLFPDISTFIMTVIGAAASLSYAVPATLNFVYKKYPHFPFYYICYGYIFIILIPCLLVATFLLPMKPFKGLDYYLENDQESDSKNKEQISYTDNDVEMQPSLIQNGNTNVSNNVNKNKATKNIIEGENFHKQSILLFFKVLLSYPSICIIVYFILFNISTVFYGMVTDIYFSYNKSIINIINILMPISFIPCIIFGRFINKYGAAIIIIIMNAFSALMHLTALIKHQAAGLISAFLYMCAASIYTSQIYCFLLNAFPSVVFGKLLGITSLFGGMFSLFCEKLYDNISNSSGNKNDPTTISILLAISFIIMFLPLSILYTRNYEKNIESVNSEKNQIQA
# notes: full ORF, synthetic codon-harmonized gene, C-terminal HA tag, cRNA in Xenopus laevis oocytes (pGHJ-HA)
# B2: TgNPT1 (TgNPT1-HA) (Toxoplasma gondii ME49) (protein)
# chain: MAGLLSSCCGRVYALLPDSAHPSAQQKTPFGVNRYVLLVIYMIYALLTSSVYFGWRSMSAMLFKSGQFSWVCTGESADTSPEEGETDYLCALQDTKVQSLFTIAMACHFTCSAVAGYLLDTVGPKAVALLGQTFNALAWILLAFSGPNFRSVYPAFVFMGAGADVSVYPTLLIVNLFPGSTALIMATLGACISLSFFVPLVLRTMWESTGISFEAVCIGYAVAGPILCAVVAFFFIPFKAFKGVDNFSACVEAEKLANSPTAQSSPKAVDSPPCDEGASSRGRLAVSHNTERTAPDDEQEKDNTERISLSDLACDPRFKKQKVSFSSQAFTFLYFGICLYFTVCGWVMAYYQEAAGRFLCNDAEYTLEILTPLSTIPCLLFGVVINRIGIMPVILMLNTIGLLTYVCVVAAESVVAQYFSVIFFFMYISIFTTQMYVFVESTFDSAHFGKLIGVASLIGGLLSLISNVLYGDVTVGMLNGDTRPVVIALLAVIILMYPILLAMRTKRNRKKQMEQEDIRSRVLELKAAHAADAA
# notes: full ORF from RH cDNA, C-terminal HA tag, cRNA in Xenopus laevis oocytes (pGHJ-HA); calculated 58 kDa, runs at ~40 kDa in parasites; 12 predicted TM domains
# Experiments:
# Assay in all cases: cells, lysate or membranes
# [1] = substrate: NCCCC[C@H](N)C(=O)O; assay type: cell-based, Plasmodium berghei; settings: ND96, pH 7.4, 500 μM unlabelled methionine present to lower background, labelled compound
# [2] = substrate: N=C(N)NCCC[C@H](N)C(=O)O; assay type: cell-based, Plasmodium berghei; settings: ND96, pH 7.4, 125 μM unlabelled methionine present to lower background, labelled compound
# [3] = substrate: N=C(N)NCCC[C@H](N)C(=O)O; assay type: cell-based, Toxoplasma gondii; settings: ND96, pH 7.4, 0-1 mM arginine, labelled compound, Figure 3 legend prints 88±16
Protein,Km [1] [µM],Km [2] [µM],Km [3] [µM]
B1,130 ± 26,41 ± 9,–
B2,–,–,88 ± 15
